Source: the Immune Epitope Database (IEDB)

Legend:
HLA-B*15:17 = test: IEDB peptide-MHC binding, purified MHC/competitive/fluorescence; filed as Kd, often an IC50 or EC50 that approximates it; ≥ and ≤ were set here for values at or beyond the usual limits of such assays; conditions: source organism: Shigella boydii CDC 3083-94
HLA-B*57:01 [1] = test: as above
HLA-A*02:16 [2] = test: as above
HLA-A*24:03 [3] = test: as above
HLA-B*39:01 [4] = test: as above
HLA-A*69:01 = test: as above
HLA-A*02:12 [5] = test: as above
HLA-A*02:03 [6] = test: as above
HLA-A*02:19 [7] = test: as above
HLA-B*51:01 [8] = test: as above
HLA-A*23:01 = test: as above
HLA-A*26:01 [9] = test: as above
HLA-A*68:02 = test: as above
HLA-B*18:01 [10] = test: as above
HLA-B*27:03 [11] = test: as above
HLA-A*02:01 [12] = test: as above
HLA-B*46:01 [13] = test: as above
HLA-A*29:02 = test: as above; conditions: source organism: Campylobacter jejuni subsp. jejuni NCTC 11168 = ATCC 700819
HLA-B*15:01 [14] = test: as above; conditions: source organism: Campylobacter jejuni subsp. jejuni NCTC 11168 = ATCC 700819
HLA-A*03:01 [15] = test: as above; conditions: source organism: Campylobacter jejuni subsp. jejuni NCTC 11168 = ATCC 700819
HLA-A*02:11 [16] = test: as above; conditions: source organism: Campylobacter jejuni subsp. jejuni NCTC 11168 = ATCC 700819
HLA-B*57:01 [17] = test: IEDB peptide-MHC binding, purified MHC/direct/fluorescence; filed as Kd, often an IC50 or EC50 that approximates it; ≥ and ≤ were set here for values at or beyond the usual limits of such assays
HLA-A*24:03 [18] = test: as above
HLA-B*39:01 [19] = test: as above; conditions: source organism: Salmonella enterica subsp. enterica serovar Typhimurium
HLA-B*15:01 [20] = test: as above
HLA-B*51:01 [21] = test: as above
HLA-A*03:01 [22] = test: as above
HLA-A*26:01 [23] = test: as above
HLA-B*18:01 [24] = test: as above
HLA-B*27:03 [25] = test: as above
HLA-B*46:01 [26] = test: as above
HLA-A*02:16 [27] = test: as above; conditions: source organism: Encephalitozoon cuniculi GB-M1
HLA-A*02:12 [28] = test: as above; conditions: source organism: Encephalitozoon cuniculi GB-M1
HLA-A*02:03 [29] = test: as above; conditions: source organism: Encephalitozoon cuniculi GB-M1
HLA-A*02:19 [30] = test: as above; conditions: source organism: Encephalitozoon cuniculi GB-M1
HLA-A*02:01 [31] = test: as above; conditions: source organism: Encephalitozoon cuniculi GB-M1
HLA-A*02:11 [32] = test: as above; conditions: source organism: Encephalitozoon cuniculi GB-M1
[33] = source organism: Shigella boydii CDC 3083-94
[34] = source organism: Campylobacter jejuni subsp. jejuni NCTC 11168 = ATCC 700819
[35] = source organism: Salmonella enterica subsp. enterica serovar Typhimurium
[36] = source organism: Encephalitozoon cuniculi GB-M1

RNNDPTLPY
Kd (HLA-B*15:17): ≥ 20 µM | Kd (HLA-B*57:01 [1]; [33]): ≥ 20 µM | Kd (HLA-A*02:16 [2]; [33]): ≥ 20 µM | Kd (HLA-A*24:03 [3]; [33]): ≥ 20 µM | Kd (HLA-B*39:01 [4]; [33]): ≥ 20 µM | Kd (HLA-A*69:01; [33]): ≥ 20 µM | Kd (HLA-A*02:12 [5]; [33]): ≥ 20 µM | Kd (HLA-A*02:03 [6]; [33]): ≥ 20 µM | Kd (HLA-A*02:19 [7]; [33]): ≥ 20 µM | Kd (HLA-B*51:01 [8]; [33]): ≥ 20 µM | Kd (HLA-A*23:01; [33]): ≥ 20 µM | Kd (HLA-A*26:01 [9]; [33]): ≥ 20 µM | Kd (HLA-A*68:02; [33]): ≥ 20 µM | Kd (HLA-B*18:01 [10]; [33]): ≥ 20 µM | Kd (HLA-B*27:03 [11]; [33]): ≥ 20 µM | Kd (HLA-A*02:01 [12]; [33]): ≥ 20 µM | Kd (HLA-B*46:01 [13]; [33]): ≥ 20 µM

KGMKIQHFK
Kd (HLA-B*57:01 [1]; [34]): ≥ 20 µM | Kd (HLA-A*02:16 [2]; [34]): ≥ 20 µM | Kd (HLA-A*24:03 [3]; [34]): ≥ 20 µM | Kd (HLA-B*39:01 [4]; [34]): ≥ 20 µM | Kd (HLA-A*69:01; [34]): ≥ 20 µM | Kd (HLA-A*29:02): ≥ 20 µM | Kd (HLA-A*02:12 [5]; [34]): ≥ 20 µM | Kd (HLA-A*02:03 [6]; [34]): ≥ 20 µM | Kd (HLA-A*02:19 [7]; [34]): ≥ 20 µM | Kd (HLA-B*15:01 [14]): ≥ 20 µM | Kd (HLA-B*51:01 [8]; [34]): ≥ 20 µM | Kd (HLA-A*03:01 [15]): 0.0679 µM | Kd (HLA-A*23:01; [34]): ≥ 20 µM | Kd (HLA-A*26:01 [9]; [34]): ≥ 20 µM | Kd (HLA-A*68:02; [34]): ≥ 20 µM | Kd (HLA-B*18:01 [10]; [34]): ≥ 20 µM | Kd (HLA-B*27:03 [11]; [34]): ≥ 20 µM | Kd (HLA-A*02:01 [12]; [34]): ≥ 20 µM | Kd (HLA-B*46:01 [13]; [34]): ≥ 20 µM | Kd (HLA-A*02:11 [16]): ≥ 20 µM

LAMLVLHQV
Kd (HLA-B*57:01 [17]; [35]): ≥ 20 µM | Kd (HLA-A*24:03 [18]; [35]): ≥ 20 µM | Kd (HLA-B*39:01 [19]): ≥ 20 µM | Kd (HLA-B*15:01 [20]; [35]): ≥ 20 µM | Kd (HLA-B*51:01 [21]; [35]): 0.416 µM | Kd (HLA-A*03:01 [22]; [35]): ≥ 20 µM | Kd (HLA-A*26:01 [23]; [35]): ≥ 20 µM | Kd (HLA-B*18:01 [24]; [35]): ≥ 20 µM | Kd (HLA-B*27:03 [25]; [35]): ≥ 20 µM | Kd (HLA-B*46:01 [26]; [35]): ≥ 20 µM

MPFDPSELV
Kd (HLA-B*57:01 [17]; [36]): ≥ 20 µM | Kd (HLA-A*02:16 [27]): ≥ 20 µM | Kd (HLA-A*24:03 [18]; [36]): ≥ 20 µM | Kd (HLA-A*02:12 [28]): ≥ 20 µM | Kd (HLA-A*02:03 [29]): ≥ 20 µM | Kd (HLA-A*02:19 [30]): ≥ 20 µM | Kd (HLA-B*15:01 [20]; [36]): ≥ 20 µM | Kd (HLA-B*51:01 [21]; [36]): 0.074 µM | Kd (HLA-A*03:01 [22]; [36]): ≥ 20 µM | Kd (HLA-A*26:01 [23]; [36]): ≥ 20 µM | Kd (HLA-B*18:01 [24]; [36]): ≥ 20 µM | Kd (HLA-B*27:03 [25]; [36]): ≥ 20 µM | Kd (HLA-A*02:01 [31]): ≥ 20 µM | Kd (HLA-B*46:01 [26]; [36]): ≥ 20 µM | Kd (HLA-A*02:11 [32]): ≥ 20 µM
